The text below walks through data of article PMC4072347 (Biochemistry, 2014).

B1: IsdH NEAT2 (IsdH^N2), residues Gln321-Asn464 (domain or fragment)
chain: QQYPPADESLQDAIKNPAIIDKEHTADNWRPIDFQMKNDKGERQFYHYASTVEPATVIFTKTGPIIELGLKTASTWKKFEVYEGDKKLPVELVSYDSDKDYAYIRFPVSNGTREVKIVSSIEYGENIHEDYDYTLMVFAQPITN
B2: IsdH NEAT1 (IsdH^N1), residues Ala86-Leu229 (domain or fragment)
chain: ADESLKDAIKDPALENKEHDIGPREQVNFQLLDKNNETQYYHFFSIKDPADVYYTKKKAEVELDINTASTWKKFEVYENNQKLPVRLVSYSPVPEDHAYIRFPVSDGTQELKIVSSTQIDDGEETNYDYTKLVFAKPIYNDPSL
B3: IsdB^N1-L, IsdB residues Leu125-Asn339 (NEAT 1 domain with the linker) (domain or fragment)
chain: LNQELREAIKNPAIKDKDHSAPNSRPIDFEMKKKDGTQQFYHYASSVKPARVIFTDSKPEIELGLQSGQFWRKFEVYEGDKKLPIKLVSYDTVKDYAYIRFSVSNGTKAVKIVSSTHFNNKEEKYDYTLMEFAQPIYNSADKFKTEEDYKAEKLLAPYKKAKTLERQVYELNKIQDKLPEKLKAEYKKKLEDTKKALDEQVKSAITEFQNVQPTN

The target of this assay is human methemoglobin (metHb) (human, UniProt P69905;P68871). Nature of the assay: SEC. In general terms: SEC sorts molecules by how far they enter the pores of the column.
Sequence of human methemoglobin (metHb) (P69905 whole entry, chain 1 of 2, the tested form may be a part): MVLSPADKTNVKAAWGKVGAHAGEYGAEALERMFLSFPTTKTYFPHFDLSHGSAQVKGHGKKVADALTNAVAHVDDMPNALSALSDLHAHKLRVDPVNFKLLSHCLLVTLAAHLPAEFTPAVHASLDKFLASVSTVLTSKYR
Sequence of human methemoglobin (metHb) (P68871 whole entry, chain 2 of 2, the tested form may be a part): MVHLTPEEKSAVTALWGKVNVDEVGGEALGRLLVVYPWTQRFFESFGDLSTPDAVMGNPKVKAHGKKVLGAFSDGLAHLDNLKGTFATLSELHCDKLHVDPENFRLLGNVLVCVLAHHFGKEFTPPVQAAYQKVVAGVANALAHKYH
In general, stoichiometry N refers to a count of units in the complex or per binding partner. B1: the “stoichiometry N” value was 1 IsdH NEAT domain per metHb (alpha/beta dimer).

Turning to B2, the “stoichiometry N” value is 1 IsdH NEAT domain per metHb (alpha/beta dimer). The same measure for B3: < 1 IsdB^N1-L per metHb.
